According to paper PMC3544810:

Target: PSD95 (HA-PSD95, VN-PSD95 plasmids) (UniProt P31016)
Test: co-immunoprecipitation, GFP-SPIN90 and HA-PSD95
Conditions: reference: GFP-SPIN90 WT; sites Y85,Y161,Y227

In the case of “SPIN90 (from UniProt Q9NZQ3) GFP-SPIN90 YF (Y85,161,227F)”, the “binding against the reference” value is reported as “weaker”.
